Measurements from the Immune Epitope Database (IEDB).

Columns and labels:
Assay in all cases: IEDB peptide-MHC binding, purified MHC/competitive/radioactivity; filed as Kd, often an IC50 or EC50 that approximates it; ≥ and ≤ were set here for values at or beyond the usual limits of such assays
[1] = molecular target: HLA-A*33:01
[2] = molecular target: HLA-A*31:01
[3] = molecular target: HLA-A*03:01
[4] = molecular target: HLA-A*68:01
[5] = molecular target: HLA-A*11:01
[6] = source organism: SARS coronavirus Tor2
[7] = source organism: Vaccinia virus WR
[8] = source organism: Dengue virus 1 Brazil/97-11/1997
[9] = source organism: Vaccinia virus LC16M8
[10] = source organism: Vaccinia virus Copenhagen
[11] = source organism: Dengue virus 3 Martinique/1243/1999
[12] = source organism: Dengue virus 4 Philippines/H241/1956
[13] = source organism: Dengue virus 2 Jamaica/1409/1983
[14] = source organism: Lymphocytic choriomeningitis virus (strain Armstrong)
[15] = source organism: Triticum aestivum

Row | Sequence | Kd [1, 7] [µM] | Kd [2, 7] [µM] | Kd [3, 7] [µM] | Kd [4, 7] [µM] | Kd [5, 7] [µM] | further results
1 | KFTTSLSLHK | – | – | – | – | – | Kd [1, 6]: 8.19 µM; Kd [2, 6]: 0.239 µM; Kd [3, 6]: 0.275 µM; Kd [4, 6]: 0.302 µM; Kd [5, 6]: 0.135 µM
2 | KIVDHIVMY | ≥ 24.8 | 11.8 | 0.0179 | 7.98 | 0.0922 | –
3 | KLITPNYMK | ≥ 59.3 | 0.486 | 0.0103 | 2.79 | 0.00508 | –
4 | KSEFNTYKR | – | – | – | – | – | Kd [2, 8]: 1.34 µM
5 | KSKNINIEVK | ≥ 70 | 1.07 | 0.305 | 13.3 | 0.568 | –
6 | KSSSIDVDKR | 8.18 | 0.0844 | 2.63 | 0.017 | 0.55 | –
7 | KTDFKVVKK | 1.21 | 0.0711 | 0.0148 | 0.365 | 0.0606 | –
8 | LFASADNHPK | – | – | – | – | – | Kd [1, 9]: 9.86 µM; Kd [2, 9]: 9.33 µM; Kd [3, 9]: 0.399 µM; Kd [4, 9]: 0.264 µM; Kd [5, 9]: 0.0859 µM
9 | LSRLRYNLCK | 2.64 | 0.206 | 0.0929 | 3.51 | 0.715 | –
10 | LTIKDSSNK | ≥ 77.7 | ≥ 34.8 | 0.827 | 0.00914 | 0.0149 | –
11 | LTILDDNLYK | – | – | – | – | – | Kd [1, 10]: 17.7 µM; Kd [2, 10]: 6.84 µM; Kd [3, 10]: 0.229 µM; Kd [4, 10]: 0.0195 µM; Kd [5, 10]: 0.00338 µM
12 | LTMKAIEKDR | 6.25 | 0.595 | 12.1 | 0.0655 | 0.28 | –
13 | MGYWIESQK | – | – | – | – | – | Kd [3, 11]: 0.0128 µM; Kd [4, 11]: 0.0672 µM
14 | MIIKHIYEQY | ≥ 70 | ≥ 70 | ≥ 70.1 | 0.14 | 5.78 | –
15 | MLAHAEETRK | – | – | – | – | – | Kd [1, 6]: ≥ 70 µM; Kd [2, 6]: 9.41 µM; Kd [3, 6]: 0.496 µM; Kd [4, 6]: 0.157 µM; Kd [5, 6]: 6.39 µM
16 | MLNILNGRKR | – | – | – | – | – | Kd [2, 12]: 0.0173 µM
17 | MSLSEQLRK | – | – | – | – | – | Kd [1, 6]: 4.73 µM; Kd [2, 6]: 0.181 µM; Kd [3, 6]: 0.00824 µM; Kd [4, 6]: 0.169 µM; Kd [5, 6]: 0.00401 µM
18 | MWTLMYFHRR | – | – | – | – | – | Kd [1, 13]: 0.0298 µM; Kd [2, 13]: 0.0336 µM
19 | NATDFWRLY | 0.526 | 0.477 | 0.0441 | 0.0523 | 0.126 | –
20 | NFFTELENKK | ≥ 32.8 | ≥ 70 | ≥ 61.8 | 6.67 | ≥ 32.3 | –

Row | Sequence | Kd [1, 7] [µM] | Kd [2, 7] [µM] | Kd [3, 7] [µM] | Kd [4, 7] [µM] | Kd [5, 7] [µM] | further results
21 | NFMVSVSDFR | 0.0331 | 0.0939 | 9.96 | 0.00656 | 4.03 | –
22 | NLPYNWKNFY | 18.6 | 1.72 | 1.78 | 0.626 | 4.36 | –
23 | NSESLSLISH | – | – | – | – | – | Kd [1, 14]: ≥ 31.8 µM; Kd [2, 14]: 16.9 µM; Kd [3, 14]: ≥ 23.4 µM; Kd [4, 14]: ≥ 29.3 µM; Kd [5, 14]: 8.05 µM
24 | NTLSERISSK | 0.404 | 1.41 | 0.0488 | 0.00948 | 0.000736 | –
25 | NTPLHIVCSK | 7.19 | 0.233 | 0.0324 | 0.0108 | 0.147 | –
26 | NTRQLKLLEY | 10.8 | 9.83 | 0.969 | 1.59 | 0.152 | –
27 | NVIEDITFLR | 0.0125 | 0.0644 | 6.72 | 0.00159 | 0.23 | –
28 | NYSKFWYLEH | – | – | – | – | – | Kd [1, 14]: 0.3 µM; Kd [2, 14]: 5.84 µM; Kd [3, 14]: ≥ 70 µM; Kd [4, 14]: ≥ 70.1 µM; Kd [5, 14]: ≥ 69.7 µM
29 | PISELSRLRY | 15.5 | ≥ 70 | 3.27 | ≥ 44.9 | 0.735 | –
30 | PQVGGLTSIK | – | – | – | – | – | Kd [1, 6]: ≥ 70 µM; Kd [2, 6]: ≥ 70 µM; Kd [3, 6]: ≥ 10 µM; Kd [4, 6]: ≥ 37.5 µM; Kd [5, 6]: 6.37 µM
31 | QLDEKSSIK | ≥ 56.8 | 4.3 | 0.204 | 14 | 0.51 | –
32 | QLMYALEPRK | – | – | – | – | – | Kd [1, 10]: ≥ 70 µM; Kd [2, 10]: 8.37 µM; Kd [3, 10]: 0.15 µM; Kd [4, 10]: 0.0838 µM; Kd [5, 10]: 0.085 µM
33 | QQHNIVHGK | – | – | – | – | – | Kd [1, 15]: ≥ 77.7 µM; Kd [2, 15]: 2.37 µM; Kd [3, 15]: 12.5 µM; Kd [4, 15]: 0.728 µM; Kd [5, 15]: 0.914 µM
34 | QSADASTFLK | – | – | – | – | – | Kd [1, 6]: 5.29 µM; Kd [2, 6]: 1.02 µM; Kd [3, 6]: 0.348 µM; Kd [4, 6]: 0.0494 µM; Kd [5, 6]: 0.0102 µM
35 | RFWDLVHRER | – | – | – | – | – | Kd [1, 8]: 0.0197 µM; Kd [2, 8]: ≥ 49.8 µM
36 | RIMQRGLFGK | – | – | – | – | – | Kd [2, 12]: 0.0109 µM; Kd [3, 12]: 0.00543 µM; Kd [5, 12]: 0.0295 µM
37 | STPIVVQMTK | – | – | – | – | – | Kd [5, 6]: 0.0142 µM
38 | TFHTMWHVTR | – | – | – | – | – | Kd [1, 13]: 0.00795 µM; Kd [2, 13]: 0.0191 µM
39 | TLFGPEREK | – | – | – | – | – | Kd [3, 12]: 0.0859 µM
40 | VFHTMWHVTR | – | – | – | – | – | Kd [1, 11]: 0.135 µM; Kd [2, 11]: 0.00453 µM
